Earlier results as cited in patent US6200966A, “Compositions for inhibiting airway wall inflammation” (Amrad Operations Pty. Ltd., priority 1996, dated 2001).

Tested on: cultured airway smooth muscle
Details: various species

B1: PDGFBB: platelet-derived growth factor (protein, UniProt P01127 82-190, looked up)
Platelet-derived growth …: SLGSLTIAEPAMIAECKTRTEVFEISRRLIDRTNANFLVWPPCVEVQRCSGCCNNRNVQCRPTQVQLRPVQVRKIEIVRKKPIFKKATVTLEDHLACKCETVAAARPVT
mitogenic activity on airway smooth muscle: most effective proliferative agents
